± gives the uncertainty stated by the source.
Assay: protein stability index of a GFP-peptide fusion (yeast GPS) (PSI 1-4); higher = more stable; sorted into four equal gates, so the index is relative within each strain
Settings: doa10∆
In short: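 Yeast carrying a pooled library were grown to mid-log phase in leucine-free medium. Each library plasmid expresses Cherry and has a tiled 17-residue yeast protein peptide fused downstream of GFP. Cells were sorted into four equal gates by GFP/Cherry ratio, and plasmids from each gate were PCR-amplified, Illumina-sequenced and assigned to strains by barcode. Summing, across gates, the read frequency times the gate number gave each peptide's protein stability index.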

Compared with KIVVVRAEALNISGEFF [RPL16B], KKEANLFPEQQNKEIKA [RPL6A] is higher in protein stability index: 2.51 ± 0.12 for the first, 3.38 ± 0.12 for the second.

First: KKFLRVRIFTKIESEDD [SRB4]
Second: KKHLKRLAAPHHWLLDK [RPS4A]
The protein stability index of the first is lower: 1.46 ± 0.092 for the first, 2.78 ± 0.14 for the second.

KKICNHPFVFEEVEDQI [SNF2] and KKIKGKSIQDIVGLATL [SRP21] are within error of each other in protein stability index: 3.17 ± 0.064 for the first, 3.12 ± 0.039 for the second.

KKIREIYRYDEMSNKVL [BRR2] and KKITLQLLDTSNQRFKD [SIN4] are within error of each other in protein stability index: 2.92 ± 0.097 for the first, 3.02 ± 0.059 for the second.

Going from KKKRFEIKKWTAVAFWS [HRT1] to KKLDDKPSLVDVHLLES [RPN6], the protein stability index falls from 1.97 ± 0.18 to 1.1 ± 0.12.

First: KKLPRKTHRGLRKVACI [RPL3]
Second: KKLVWPLHLIFAQPVAD [SSN2]
The protein stability index of the first is lower: 1.61 ± 0.062 for the first, 1.88 ± 0.075 for the second.

Compared with KKMMNTLVHTRVKIANT [SSN2], KKNKRALPNIENDIIKL [BRR2] is higher in protein stability index: 2.69 ± 0.066 for the first, 3.09 ± 0.054 for the second.

Compared with KKNSSRPMPPIRGPKRR [SMD3], KKNVWRSINNLIQEHDS [BRN1] is higher in protein stability index: 2.23 ± 0.043 for the first, 3.16 ± 0.1 for the second.

First: KKRKIHNGREGSIEEPE [MCD1]
Second: KKRLMDIDDELNELETL [SMC2]
The protein stability index of the first is higher: 3.26 ± 0.066 for the first, 3.05 ± 0.058 for the second.

KKSVNKLDKQINMADRS [POP6] and KKVVIVKPHDEGSKSHP [RPL27A] are within error of each other in protein stability index: 2.73 ± 0.062 for the first, 2.87 ± 0.081 for the second.

Going from KLALGIALEGYRLDIIE [RPN2] to KLEPKEIVRDILHTKES [SIR4], the protein stability index rises from 2.51 ± 0.15 to 2.92 ± 0.1.

First: KLKQLLDESSEQKNTAK [YIL149C/MLP2]
Second: KLLFQELMAMNITPRLY [RPB2]
The protein stability index of the first is higher: 3.02 ± 0.11 for the first, 1.27 ± 0.1 for the second.

Going from KLLIQIDELSNGQRSNS [SMC1] to KLLQLAGVEDVYTQSNG [RPS2], the protein stability index falls from 2.42 ± 0.16 to 1.56 ± 0.066.

Compared with KLQFETDRLSTTQRRYE [SMC1], KLQSQSLHTKNVFGTLQ [YLR018C/POM34] is lower in protein stability index: 3.13 ± 0.094 for the first, 2.87 ± 0.12 for the second.

First: KLSISNAASQQPTPRSA [GAL11]
Second: KLSKILPRYQELTKEEA [SMC3]
The protein stability index of the first is lower: 2.57 ± 0.083 for the first, 3.16 ± 0.11 for the second.

First: KLTDEQSSLDVAGLEDK [SIR3]
Second: KLTSEETVFNYRLMIKR [GRR1]
The protein stability index of the first is lower: 2.68 ± 0.083 for the first, 3.02 ± 0.12 for the second.

Compared with KLVEIIWNDVVYGEGTS [YJL039C/NUP192], KLWFQLSESLTKFFDDA [RPN9] is lower in protein stability index: 3.46 ± 0.11 for the first, 3.02 ± 0.083 for the second.

KLYQTEPSGIYSSWSAQ [PRE6] and KMELVYVSDSDDSSSDN [SIR4] are within error of each other in protein stability index: 2.63 ± 0.084 for the first, 2.7 ± 0.059 for the second.

Going from KMFIQRILAMCVKNHGQ [YCS4] to KMIDFATLSKLKKKYQI [SIR3], the protein stability index rises from 1.69 ± 0.062 to 2.9 ± 0.11.

KMNNKPERFMVFQLPTR [RPC53] and KMSVTCNAQPITRSVMR [BRR2] are within error of each other in protein stability index: 2.38 ± 0.063 for the first, 2.47 ± 0.06 for the second.

Compared with KNAQYHLLVKQGDGLLT [RPN7], KNATEELLRLANEQLKL [CSN12] is higher in protein stability index: 1.96 ± 0.1 for the first, 3 ± 0.071 for the second.

KNDKLIKIEDFVDDMLR [SNF5] and KNDNIKKSVNKLDKQIN [POP6] are within error of each other in protein stability index: 2.88 ± 0.063 for the first, 2.78 ± 0.049 for the second.

Compared with KNFIESESVGAFLSFLA [YJL039C/NUP192], KNFKGIEEIEYNVKNII [PCI8] is higher in protein stability index: 2.1 ± 0.066 for the first, 3.05 ± 0.078 for the second.

Going from KNGNEYNEFLYSKAGRE [QCR8] to KNKGLVVSPYDYNHKRV [DIB1], the protein stability index rises from 2.77 ± 0.064 to 3.18 ± 0.12.

First: KNLISRINTLPQVQLPV [ECM29]
Second: KNLKDTASVEKAEFSKE [YIL149C/MLP2]
The protein stability index of the first is lower: 2.85 ± 0.13 for the first, 3.07 ± 0.083 for the second.

First: KNLKPQEQLKNVKNDVS [YIL149C/MLP2]
Second: KNSTSSMTAVPKPLKFL [RPN1]
The protein stability index of the first is higher: 3.23 ± 0.089 for the first, 2.03 ± 0.071 for the second.

Compared with KNTEEGKALVHHYEECA [QCR6], KNTELSYDFLPLSNIKA [RPN12] is lower in protein stability index: 3.37 ± 0.067 for the first, 3.13 ± 0.075 for the second.

First: KNVKHSGNIQLDEIIEI [RPL12A]
Second: KNVNIEDITEPKPDKPS [ESC2]
The protein stability index of the first is higher: 3.24 ± 0.071 for the first, 2.96 ± 0.094 for the second.

KNVRTRIKLATTSERVS [RRI1] and KNYLKNYILNFKQSNSE [CDC53] are the same in protein stability index: 2.6 ± 0.058 for the first, 2.6 ± 0.044 for the second.

First: KPAFSFGAKSDEKKDSD [YJL041W/NSP1]
Second: KPAFSFGINTNTTKTAD [YLR335W/NUP2]
The protein stability index of the first is higher: 3.35 ± 0.087 for the first, 2.98 ± 0.098 for the second.

Going from KPALGSLGSSSTTASGT [YGR119C/NUP57] to KPMNKGQHKNNTSLNIN [SWP82], the protein stability index falls from 3.22 ± 0.085 to 2.92 ± 0.092.

Compared with KPNLNYFKSILLNKNTG [SWI1], KPSNGKGSRKSSKAATP [SNF12] is higher in protein stability index: 2.17 ± 0.058 for the first, 3 ± 0.085 for the second.

Compared with KPTSPFIDSICKLFDKI [SRB8], KPWFATVNGQARDLATM [FAS1] is higher in protein stability index: 1.56 ± 0.04 for the first, 3.01 ± 0.11 for the second.

Compared with KQKSWVPSYIHVEKERA [YIL149C/MLP2], KQTAAYRTPGSSGVLSS [SSN2] is higher in protein stability index: 1.79 ± 0.058 for the first, 2.88 ± 0.063 for the second.

Compared with KQYDNRITKSNEKSQAE [LRP1], KRAASVARHIYMRKQVG [RPS19A] is lower in protein stability index: 2.91 ± 0.087 for the first, 1.7 ± 0.2 for the second.

Compared with KRCVGVILGDANSSTIR [RPN8], KREASRGFFDILSLATE [MCD1] is higher in protein stability index: 2.85 ± 0.042 for the first, 3.08 ± 0.083 for the second.

Going from KREGKTRLLNIVMQLRK [ISW2] to KRHSYAQSSHIRAIRKV [RPS1A], the protein stability index falls from 2.7 ± 0.078 to 2.399 ± 0.019.

First: KRLSAALSKFLTHPKYL [YML103C/NUP188]
Second: KRRKLDLNNAVQKRDEV [SMC4]
The protein stability index of the first is lower: 2.48 ± 0.072 for the first, 3.41 ± 0.26 for the second.

KRSDLTGANSIYSVEKK [UBP6] and KRSTVPLNDGFVDLVEH [YML103C/NUP188] are within error of each other in protein stability index: 3.09 ± 0.12 for the first, 3.06 ± 0.09 for the second.

KSEFDDLSLNIHPIPSV [YMR129W/POM152] and KSIIGKLTAERANLRKY [POP1] are within error of each other in protein stability index: 2.64 ± 0.043 for the first, 2.72 ± 0.059 for the second.

KSKEDMKQLKFFKPLDY [SNU114] and KSKGDVDIKGEDLHEKN [NUT1] are the same in protein stability index: 3.32 ± 0.14 for the first, 3.32 ± 0.27 for the second.

First: KSKKSWLNRLNNWLFGW [YMR153W/NUP53]
Second: KSKTSTGKERSKKRKLN [SNM1]
The protein stability index of the first is lower: 2.81 ± 0.054 for the first, 3.1 ± 0.085 for the second.

First: KSLGLKLPLSVINVSAQ [RPS17A]
Second: KSNSTGNISSSTVKKKD [REC8]
The protein stability index of the first is lower: 1.35 ± 0.052 for the first, 2.96 ± 0.058 for the second.

First: KSQEQREHSLQLFRTNK [PRP28]
Second: KSSAFVIDIGASGCNVT [ARP7]
The protein stability index of the first is higher: 3 ± 0.24 for the first, 1.81 ± 0.039 for the second.

Going from KSSILTVLQKNSLLLDS [YML103C/NUP188] to KSSNDTIEHAADITDGN [YCG1], the protein stability index rises from 1.84 ± 0.056 to 2.98 ± 0.25.

First: KSSVPGSAELRNSYPAS [RPN3]
Second: KSVRILKNKAEYLKNCP [RPC40]
The protein stability index of the first is lower: 2.66 ± 0.089 for the first, 3.13 ± 0.066 for the second.

Going from KSYASLLAQLNGTVNNN [RPT3] to KTADVKRQYVKQFLTKD [RPL20A], the protein stability index rises from 2.61 ± 0.14 to 2.94 ± 0.087.

Going from KTAYSIYLSQNELTDAI [RPN1] to KTDLELLVERLKEDDSS [RPN1], the protein stability index rises from 2.48 ± 0.037 to 3.18 ± 0.11.

First: KTDPAGYYVGYKATATG [SCL1]
Second: KTICNLLISDTESNELI [IRR1]
The protein stability index of the first is higher: 2.98 ± 0.08 for the first, 2.74 ± 0.063 for the second.

First: KTITLEVESSDTIDNVK [RPS31]
Second: KTITSGLKYALATGNWG [RPB2]
The protein stability index of the first is higher: 2.88 ± 0.1 for the first, 2.32 ± 0.066 for the second.

Compared with KTKWDRKPMGKRINFEK [POP1], KTLCARAVANRTDATFI [RPT1] is lower in protein stability index: 2.84 ± 0.11 for the first, 1.39 ± 0.12 for the second.

Same assay, conditions: pdr5∆

Work on KIVVVRAEALNISGEFF [RPL16B] yielded a protein stability index of 2.79 ± 0.12.

Reference: the supplement of paper PMC9732359
